From PMC11548754, “DRN facilitates WUS transcriptional regulatory activity by chromatin remodeling to regulate shoot stem cell homeostasis in Arabidopsis”

How the values were obtained:
GST-WUS (WUSCHEL) = target: T1, GST-WUS (WUSCHEL) (Arabidopsis thaliana, UniProt Q9SB92 1-292); test: EMSA; EMSA kit (Thermo 20148), biotin-labeled probe; buffer, salt, pH and temperature not stated; conditions: protein: recombinant; tags: N-terminal GST (pGEX6p-1); chain copies: 2; label: biotin; blunt
T1 sequence: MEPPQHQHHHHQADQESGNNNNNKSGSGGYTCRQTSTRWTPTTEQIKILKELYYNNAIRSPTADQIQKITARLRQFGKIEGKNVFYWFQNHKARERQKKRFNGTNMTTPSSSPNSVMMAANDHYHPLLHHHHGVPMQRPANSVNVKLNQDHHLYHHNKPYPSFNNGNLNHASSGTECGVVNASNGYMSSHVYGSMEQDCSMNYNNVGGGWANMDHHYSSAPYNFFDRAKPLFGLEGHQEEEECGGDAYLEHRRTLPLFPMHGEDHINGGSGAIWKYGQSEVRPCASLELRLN

[1] = target: GST-WUS (WUSCHEL);8His-MBP-DRN (DORNROSCHEN) (Arabidopsis thaliana;Arabidopsis …, UniProt Q9SB92;Q9SAD4 1-292;1-328, |); test: EMSA; super-shift on adding DRN to WUS; EMSA kit (Thermo 20148), biotin-labeled probe; buffer, salt, pH and temperature not stated; conditions: protein: recombinant;recombinant; tags: N-terminal GST (pGEX6p-1);N-terminal 8His-MBP (modified pET28b); label: biotin; blunt
GST-WUS (WUSCHEL);8His-MBP-DRN (DORNROSCHEN), sequence (Q9SAD4 whole entry, one chain of several): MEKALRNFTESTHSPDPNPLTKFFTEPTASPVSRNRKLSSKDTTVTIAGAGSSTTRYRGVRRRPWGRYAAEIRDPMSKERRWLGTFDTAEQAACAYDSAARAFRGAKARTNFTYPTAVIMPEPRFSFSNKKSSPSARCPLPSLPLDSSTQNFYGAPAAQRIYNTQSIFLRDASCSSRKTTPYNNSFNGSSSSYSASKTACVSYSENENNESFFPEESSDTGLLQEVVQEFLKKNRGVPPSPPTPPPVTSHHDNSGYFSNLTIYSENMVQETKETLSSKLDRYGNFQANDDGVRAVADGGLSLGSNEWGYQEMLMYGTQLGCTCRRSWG

B1: CLV3 promoter probe (-1090 to -1064) (dsDNA)
DNA 1: GGCTCATATAATCCATTCAATTTATG
DNA 2: CATAAATTGAATGGATTATATGAGCC
GST-WUS (WUSCHEL)
  binding result: binds
[1]
  binding result: binds
